± gives the uncertainty stated by the source.
Test: self-splicing fitness, log relative to wild type (ln ratio); higher = more splicing; Tetrahymena group I intron in knt gene, E. coli kanamycin selection, DiMSum; sequences stand for … in CUCUCU…GGAGGGAAAAGUUAUCAGGCAUGCACCUGGUAGCUAGUCUUUAAACCAAUAGAUUGCAUCGGUUUAAAAGGCAAGACCGUCAAAUUGCGGGAAAGGGGUCAACAGCCGUUCAGUACCAAGUCUCAGGGGAAACUUUGAGAUGGCCUUGCAAAGGGUAUGGUAAUAAGCUGACGGACAUGGUCCUAACCACGCAGCCAAGUCCUAAGUCAACAGAUCUUCUGUUGAUAUGGAUGCAGUUCACAGACUAAAUGUCGGUCGGGGAAGAUGUAUUCUUCUCAUAAGAUAUAGUCGGACCUCUCCUUAAUGGGAGCUAGCGGAUGAAGUGAUGCAACACUGGAGCCGCUGGGAACUAAUUUGUAUGCGAAAGUAUAUUGAUUAGUUUUGGAGUACUCGUGGUCG
How it was run: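 Pooled colonies went to amplicon sequencing on an Illumina HiSeq 2500 after six replicate transformations. The plates were LB agar with 100 μg/mL carbenicillin, 50 μM IPTG and 0.2% rhamnose, with or without 25 μg/mL kanamycin, incubated overnight at 37°C or 30°C. The E. coli BL21(DE3) library had all eight P1ex-region intron nucleotides randomised, the intron placed in the knt kanamycin-resistance gene on pET-22b(+). DiMSum fitness is the error-weighted combination of replicate fold changes, kanamycin against none, normalised to wild type.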

UCUAAGCAAUAUUACGUACA
self-splicing fitness (ln) (30 °C): -1.57 ± 0.13
self-splicing fitness (ln) (37 °C): -1.13 ± 0.13

CUGUAGCAAUAUUACGGCAA
self-splicing fitness (ln) (30 °C): -3.11 ± 0.39

GUAGAGCAAUAUUACGGGGC
self-splicing fitness (ln) (37 °C): -1.52 ± 0.36

UGCAAGCAAUAUUACGAGUG
self-splicing fitness (ln) (30 °C): -1.42 ± 0.052
self-splicing fitness (ln) (37 °C): -0.498 ± 0.062

ACUGAGCAAUAUUACGGUAU
self-splicing fitness (ln) (30 °C): -3.55 ± 0.18
self-splicing fitness (ln) (37 °C): -3.17 ± 0.26

UGUGAGCAAUAUUACGUAAG
self-splicing fitness (ln) (30 °C): -1.7 ± 0.15
self-splicing fitness (ln) (37 °C): -0.85 ± 0.21

AUGUAGCAAUAUUACGAUAG
self-splicing fitness (ln) (30 °C): -2.48 ± 0.19
self-splicing fitness (ln) (37 °C): -2.67 ± 0.27

GCACAGCAAUAUUACGGGCA
self-splicing fitness (ln) (30 °C): -1.84 ± 0.11
self-splicing fitness (ln) (37 °C): -0.886 ± 0.094

CCUUAGCAAUAUUACGUCCC
self-splicing fitness (ln) (30 °C): -1.81 ± 0.5

GCGCAGCAAUAUUACGCUGA
self-splicing fitness (ln) (30 °C): -1.16 ± 0.12
self-splicing fitness (ln) (37 °C): -0.667 ± 0.1

CCGUAGCAAUAUUACGAAUG
self-splicing fitness (ln) (30 °C): -0.463 ± 0.099
self-splicing fitness (ln) (37 °C): 0.0216 ± 0.11

UCUUAGCAAUAUUACGUCGG
self-splicing fitness (ln) (30 °C): -0.815 ± 0.21
self-splicing fitness (ln) (37 °C): -0.0675 ± 0.2

AAUUAGCAAUAUUACGUGUA
self-splicing fitness (ln) (30 °C): -2.21 ± 0.15
self-splicing fitness (ln) (37 °C): -1.41 ± 0.12

UCAGAGCAAUAUUACGUCGC
self-splicing fitness (ln) (30 °C): -3.79 ± 0.37
self-splicing fitness (ln) (37 °C): -2.41 ± 0.35

AUCCAGCAAUAUUACGGGCG
self-splicing fitness (ln) (30 °C): -0.327 ± 0.066
self-splicing fitness (ln) (37 °C): 0.25 ± 0.089

UGGCAGCAAUAUUACGCGAG
self-splicing fitness (ln) (30 °C): -1.96 ± 0.1
self-splicing fitness (ln) (37 °C): -0.954 ± 0.097

CCCUAGCAAUAUUACGUUUC
self-splicing fitness (ln) (30 °C): -3.32 ± 0.17
self-splicing fitness (ln) (37 °C): -2.24 ± 0.19

UAAAAGCAAUAUUACGCGCA
self-splicing fitness (ln) (30 °C): -0.512 ± 0.084
self-splicing fitness (ln) (37 °C): 0.752 ± 0.13

GGAUAGCAAUAUUACGCAUG
self-splicing fitness (ln) (30 °C): -0.819 ± 0.12
self-splicing fitness (ln) (37 °C): 0.00525 ± 0.14

GAUGAGCAAUAUUACGUACC
self-splicing fitness (ln) (30 °C): -0.53 ± 0.35
self-splicing fitness (ln) (37 °C): -1.77 ± 0.44

AGAUAGCAAUAUUACGGGGU
self-splicing fitness (ln) (30 °C): -3.5 ± 0.16
self-splicing fitness (ln) (37 °C): -2.26 ± 0.13

UAAAAGCAAUAUUACGACCA
self-splicing fitness (ln) (30 °C): -0.143 ± 0.092
self-splicing fitness (ln) (37 °C): 0.711 ± 0.13

UCCAAGCAAUAUUACGUUUU
self-splicing fitness (ln) (30 °C): -4 ± 0.13
self-splicing fitness (ln) (37 °C): -2.91 ± 0.14

UCUCAGCAAUAUUACGGCGA
self-splicing fitness (ln) (30 °C): -1.13 ± 0.1
self-splicing fitness (ln) (37 °C): -0.623 ± 0.11

GGCUAGCAAUAUUACGCCAU
self-splicing fitness (ln) (30 °C): -2.23 ± 0.22

UAUUAGCAAUAUUACGCGGU
self-splicing fitness (ln) (30 °C): -3.62 ± 0.36
self-splicing fitness (ln) (37 °C): -1.8 ± 0.37

ACACAGCAAUAUUACGUGCU
self-splicing fitness (ln) (30 °C): -1.34 ± 0.055
self-splicing fitness (ln) (37 °C): -0.611 ± 0.065

AGUCAGCAAUAUUACGCCUC
self-splicing fitness (ln) (30 °C): -2.68 ± 0.32
self-splicing fitness (ln) (37 °C): -1 ± 0.42

CGCGAGCAAUAUUACGUUUA
self-splicing fitness (ln) (30 °C): -3.98 ± 0.25
self-splicing fitness (ln) (37 °C): -3.3 ± 0.28

GGAUAGCAAUAUUACGAAUU
self-splicing fitness (ln) (30 °C): -2.56 ± 0.21
self-splicing fitness (ln) (37 °C): -1.57 ± 0.19

CUUCAGCAAUAUUACGCGAU
self-splicing fitness (ln) (30 °C): -2.85 ± 0.32
self-splicing fitness (ln) (37 °C): -1.19 ± 0.38

CGCUAGCAAUAUUACGCGCC
self-splicing fitness (ln) (30 °C): -2.52 ± 0.19
self-splicing fitness (ln) (37 °C): -2.24 ± 0.35

AUGCAGCAAUAUUACGUAUU
self-splicing fitness (ln) (30 °C): -4.03 ± 0.26
self-splicing fitness (ln) (37 °C): -1.69 ± 0.14

AAUUAGCAAUAUUACGUAAA
self-splicing fitness (ln) (30 °C): -1.3 ± 0.11
self-splicing fitness (ln) (37 °C): -0.736 ± 0.18

AGAGAGCAAUAUUACGAGUA
self-splicing fitness (ln) (37 °C): -2.01 ± 0.45

AAAUAGCAAUAUUACGAGGA
self-splicing fitness (ln) (30 °C): -2.72 ± 0.19
self-splicing fitness (ln) (37 °C): -1.88 ± 0.18

UAUAAGCAAUAUUACGCGUG
self-splicing fitness (ln) (30 °C): -1 ± 0.057
self-splicing fitness (ln) (37 °C): -0.488 ± 0.075

ACGCAGCAAUAUUACGCUCU
self-splicing fitness (ln) (30 °C): -0.517 ± 0.067
self-splicing fitness (ln) (37 °C): 0.303 ± 0.076

AAACAGCAAUAUUACGCUUC
self-splicing fitness (ln) (30 °C): -3.6 ± 0.26
self-splicing fitness (ln) (37 °C): -2.35 ± 0.21

Reference: the supplement of paper PMC7877785
